In patent US20100255578A1 one finds 405 nm (Found Value - Blank) and absorbance data, which are given here for 1 substance.

Experiment [1] has as its target H296-H296-H296-HT. In words: ELISA; H296-H296-H296-HT coated at 2 ug/mL; HRP-labeled FNH3-8, ABTS; blank subtracted. (An ELISA detects its analyte on a solid surface through an enzyme-linked reagent.)
Experiment [2] concerns the target H296-H296-HT. Nature of the experiment: ELISA; H296-H296-HT coated at 0.5 ug/mL; HRP-labeled FNH3-8, ABTS; blank subtracted.
For experiment [3], the target named is H-296, a polypeptide comprising a heparin binding domain and a CS-1 domain of fibronectin (Homo sapiens (Human)) (UniProt P02751). In words: ELISA; H-296 coated at 50 ug/mL in 0.2 M phosphate buffer pH 7.4; HRP-labeled FNH3-8, ABTS.

Sequence of H296-H296-HT (chain, as listed by the source limits assumed): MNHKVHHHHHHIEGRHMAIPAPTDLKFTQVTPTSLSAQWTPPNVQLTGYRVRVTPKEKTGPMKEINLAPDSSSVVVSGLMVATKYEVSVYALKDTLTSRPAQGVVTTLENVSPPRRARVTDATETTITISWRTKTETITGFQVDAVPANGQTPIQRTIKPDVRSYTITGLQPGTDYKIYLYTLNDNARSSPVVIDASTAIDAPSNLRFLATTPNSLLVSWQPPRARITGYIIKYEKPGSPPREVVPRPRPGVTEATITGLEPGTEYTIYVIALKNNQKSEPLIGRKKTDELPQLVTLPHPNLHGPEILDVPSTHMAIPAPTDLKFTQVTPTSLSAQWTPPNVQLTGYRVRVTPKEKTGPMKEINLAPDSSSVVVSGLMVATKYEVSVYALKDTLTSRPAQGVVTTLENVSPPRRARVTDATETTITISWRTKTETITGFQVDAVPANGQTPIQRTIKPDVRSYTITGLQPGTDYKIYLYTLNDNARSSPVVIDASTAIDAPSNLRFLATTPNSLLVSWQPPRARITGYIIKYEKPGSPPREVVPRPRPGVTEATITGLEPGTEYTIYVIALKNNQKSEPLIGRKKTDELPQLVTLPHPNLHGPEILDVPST
Sequence of H296-H296-H296-HT (chain, as listed by the source limits assumed): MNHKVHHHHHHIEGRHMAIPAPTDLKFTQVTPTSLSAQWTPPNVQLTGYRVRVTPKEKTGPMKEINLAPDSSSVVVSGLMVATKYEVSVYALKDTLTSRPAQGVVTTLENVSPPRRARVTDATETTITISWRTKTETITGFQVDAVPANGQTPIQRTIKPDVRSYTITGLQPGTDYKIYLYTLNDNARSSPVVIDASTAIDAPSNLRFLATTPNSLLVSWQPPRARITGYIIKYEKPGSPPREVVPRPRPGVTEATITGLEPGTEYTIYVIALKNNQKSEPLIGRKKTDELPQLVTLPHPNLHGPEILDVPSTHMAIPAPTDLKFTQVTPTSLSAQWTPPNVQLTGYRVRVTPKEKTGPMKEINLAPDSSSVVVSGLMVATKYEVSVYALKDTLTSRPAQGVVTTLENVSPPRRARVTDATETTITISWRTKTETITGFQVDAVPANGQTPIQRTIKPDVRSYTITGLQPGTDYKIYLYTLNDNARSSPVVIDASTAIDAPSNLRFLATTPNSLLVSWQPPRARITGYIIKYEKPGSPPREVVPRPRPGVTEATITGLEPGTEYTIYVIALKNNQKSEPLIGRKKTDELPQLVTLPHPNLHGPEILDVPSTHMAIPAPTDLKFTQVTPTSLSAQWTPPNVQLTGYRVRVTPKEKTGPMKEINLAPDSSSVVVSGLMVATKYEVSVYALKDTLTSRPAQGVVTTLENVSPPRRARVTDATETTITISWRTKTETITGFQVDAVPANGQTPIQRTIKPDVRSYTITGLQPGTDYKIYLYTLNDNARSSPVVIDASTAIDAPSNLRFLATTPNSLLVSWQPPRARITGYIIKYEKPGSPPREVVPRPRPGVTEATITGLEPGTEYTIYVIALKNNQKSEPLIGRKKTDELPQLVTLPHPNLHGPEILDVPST

As for “FNH3-8 antibody (manufactured by TAKARA BIO INC.) labeled with HRP”, the results for the 405 nm (Found Value - Blank) in experiment [1] and in experiment [2] were 0.545 and 0.033, respectively. Also, the absorbance at 405 nm in experiment [3] worked out at 0.169.
